Assay results from patent publication US20130209489A1 (Amgen, published 2013).
Positions count from the first letter of the chain named.

B1: anti-myostatin antibody 12A5-1 (antibody, V domains shown)
VH: EVQLVESGGGLVQPGGSLRLSCAASGFTFSNYWMNWVRQAPGKGLEWVAQIRLKSDNYATHYAESVKGRFTISRDNAKNSLYLQMNSLRAEDTAVYYCARGLDYWGQGTTVTVSS
VL: DIQMTQSPSSLSASVGDRVTITCKASQDINKYVAWYQQKPGKAPKLLIYYTSTLQPGVPSRFSGSGSGTDFTFTISSLQPEDIATYYCLQYDNLLYTFGQGTKLEIK
B2: anti-myostatin antibody 12A5-3 (antibody, V domains shown)
VH: B1 VH with M34C, A99T, R100E
VL: B1 VL with T53F
B3: anti-myostatin antibody 12A5-8 (antibody, V domains shown)
VH: B1 VH with S30R, M34C, A99T, R100E
VL: B1 VL with S52K
B4: anti-myostatin antibody 12A5-12 (antibody, V domains shown)
VH: B1 VH with M34L, A99T, R100E
VL: B1 VL with T53W
B5: anti-myostatin antibody 12A5-18 (antibody, V domains shown)
VH: B1 VH with S30R, M34C, A99T, R100E
VL: B1 VL with T53H
B6: anti-myostatin antibody 12A5-10 (antibody, V domains shown)
VH: B1 VH with S30R, M34C, A99T, R100E
VL: B1 VL with L94K
B7: anti-myostatin antibody 12A5-6 (antibody, V domains shown)
VH: B1 VH with N31R, A99T, R100E
VL: B1 VL with T53F, N93A
B8: anti-myostatin antibody 12A5-9 (antibody, V domains shown)
VH: B1 VH with S30R, M34C, A99T, R100E
VL: B1 VL with S52R

target: mature human myostatin (human, UniProt O14793 267-375); assay: cell-based or functional assay

| IC50 (nM), C2C12/pMARE luciferase reporter cell myostatin activity assay [nM] | Binder |
| --- | --- |
| 473 | B1 |
| 2.53 | B2 |
| 4.96 | B3 |
| 1.45 | B4 |
| 1.45 | B5 |
| 3.08 | B6 |
| 1.64 | B7 |
| 3.98 | B8 |
